Results: US20150210738

Legend:
[1] = system: Protein VI (Human adenovirus 2); experiment: FP; conditions: 20 mM Tris pH 8.0, 0.025% DDM, 1 mM MgCl2, 21 C
[2] = biological target: pVI (precursor to protein VI) (Human adenovirus 2) (UniProt P03274); experiment: FP; conditions: 20 mM Tris pH 8.0, 0.025% DDM, 0.1 mM DTT, 1 mM MgCl2, 21 C; 4:1 stoichiometry
Sequence of pVI (precursor to protein VI) (Human adenovirus 2) (P03274 whole entry): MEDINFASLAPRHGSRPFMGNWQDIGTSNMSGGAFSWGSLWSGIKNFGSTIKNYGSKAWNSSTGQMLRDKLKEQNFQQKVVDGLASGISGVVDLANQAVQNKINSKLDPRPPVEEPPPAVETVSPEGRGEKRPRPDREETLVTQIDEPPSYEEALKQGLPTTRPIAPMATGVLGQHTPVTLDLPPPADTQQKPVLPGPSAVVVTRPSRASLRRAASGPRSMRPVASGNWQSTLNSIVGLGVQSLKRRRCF

33-mer dsDNA was tested, and the Kd [1] was 241 nM and the Kd [2] was 35 nM.
